B1: Death-associated protein kinase 3 (Rattus norvegicus (Rat)), O88764 (parent)
chain: MSTFRQEDVEDHYEMGEELGSGQFAIVRKCQQKGTGMEYAAKFIKKRRLPSSRRGVSREEIEREVSILREIRHPNIITLHDVFENKTDVVLILELVSGGELFDFLAEKESLTEDEATQFLKQILDGVHYLHSKRIAHFDLKPENIMLLDKHAASPRIKLIDFGIAHRIEAGSEFKNIFGTPEFVAPEIVNYEPLGLEADMWSIGVITYILLSGASPFLGETKQETLTNISAVNYDFDEEYFSSTSELAKDFIRRLLVKDPKRRMTIAQSLEHSWIKVRRREDGARKPERRRLRAARLREYSLKSHSSMPRNTSYASFERFSRVLEDVAAAEQGLRELQRGRRQCRERVCALRVAAEQREARCRDGSAGLGRDLRRLRTELGRTEALRTRAQEEARAALLGAGGLKRRLCRLENRYDALAAQVAAEVQFVRDLVRALEQERLQAECGVR
partner: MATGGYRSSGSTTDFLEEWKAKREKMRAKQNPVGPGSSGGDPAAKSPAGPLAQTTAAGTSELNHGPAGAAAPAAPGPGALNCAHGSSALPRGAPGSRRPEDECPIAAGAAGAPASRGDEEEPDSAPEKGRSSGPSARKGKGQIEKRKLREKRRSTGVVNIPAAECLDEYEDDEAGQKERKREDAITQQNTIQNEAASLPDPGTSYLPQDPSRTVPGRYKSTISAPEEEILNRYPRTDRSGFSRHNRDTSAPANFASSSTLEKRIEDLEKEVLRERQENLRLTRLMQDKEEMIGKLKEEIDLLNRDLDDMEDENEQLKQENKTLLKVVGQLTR

Variants of B1 are the subject of this assay. Conditions: with pawr_rat Pawr.
Take K42A: the “effect of a mutation on the interaction” value is “disrupting interaction”.

The record behind these values is IntAct's records for PubMed 10602480.
